The target in assay [1] is recombinant CD62L antigen (not stated (the Fab labels human PBMCs)) (UniProt P14151). The experiment in a line: SPR (Biacore), recombinant antigen (extracellular domain) immobilized by amine coupling, Fab as analyte, 1:1 binding mass transfer model. In general terms: In SPR one partner is held on a chip, and binding of the other changes the refractive index at the surface.

Assay [2] deals with CD62L antigen on human PBMCs (human) (UniProt P14151). The experiment in a line: flow cytometry, human PBMCs, biotinylated Fab 1 µg/mL, SA-APC, after five washing steps; enables reversible labeling: yes. For orientation: Flow cytometry measures light scatter and fluorescence of single cells or particles in a stream.
Sequence of CD62L antigen on human PBMCs (human) (P14151 39-372): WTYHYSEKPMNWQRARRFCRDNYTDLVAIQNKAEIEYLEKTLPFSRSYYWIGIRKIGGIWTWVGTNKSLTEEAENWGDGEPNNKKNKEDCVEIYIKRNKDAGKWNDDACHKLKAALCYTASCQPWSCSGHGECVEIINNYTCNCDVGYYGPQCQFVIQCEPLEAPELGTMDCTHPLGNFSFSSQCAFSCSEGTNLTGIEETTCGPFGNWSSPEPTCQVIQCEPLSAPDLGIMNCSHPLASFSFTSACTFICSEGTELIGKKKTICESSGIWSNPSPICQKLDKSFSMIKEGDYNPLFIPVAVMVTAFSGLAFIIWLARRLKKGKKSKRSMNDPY
Assay [3] has the same target. The experiment in a line: flow cytometry, human PBMCs, biotinylated Fab 1 µg/mL, SA-APC, after five washing steps; median of control (background) 0.2; enables reversible labeling: yes.
Assay [4] shares this target. The experiment in a line: flow cytometry, human PBMCs, biotinylated Fab 1 µg/mL, SA-APC, before washing; median of control (background) 0.2.
Assay [5] has as its target CD27 antigen on human PBMCs (human) (UniProt P26842). Briefly: flow cytometry, human PBMCs, biotinylated Fab, SA-APC, before washing; gate above APC about 1.
Assay [6] has as its target recombinant CD27 antigen (not stated (the Fab labels human PBMCs)) (UniProt P26842). The experiment in a line: SPR (Biacore), recombinant antigen (extracellular domain) immobilized by amine coupling, Fab as analyte, 1:1 binding mass transfer model.
Assay [7] concerns the target CD27 antigen on human PBMCs (human) (UniProt P26842). Briefly: flow cytometry, human PBMCs, biotinylated Fab, SA-APC, after five washing steps; same gate above APC about 1.
The target is the same in assay [8]. Briefly: flow cytometry, human PBMCs, biotinylated Fab 1 µg/mL, SA-APC, after five washing steps; enables reversible labeling: no.
For assay [9] the target is unchanged. The experiment in a line: flow cytometry, human PBMCs, biotinylated Fab 1 µg/mL, SA-APC, after five washing steps; median of control (background) 0.2; enables reversible labeling: no.
For assay [10] the target is unchanged. The experiment in a line: flow cytometry, human PBMCs, biotinylated Fab 1 µg/mL, SA-APC, before washing; median of control (background) 0.2.
The target in assay [11] is CD4 antigen on human PBMCs (human) (UniProt P01730). The experiment in a line: flow cytometry on human PBMCs, Fab multimerized with anti-Biotin-PE, before disruption.
The target of assay [12] is recombinant CD4 antigen (not stated (the Fab labels human PBMCs)) (UniProt P01730). The experiment in a line: SPR (Biacore), recombinant antigen (extracellular domain) immobilized by amine coupling, Fab as analyte, 1:1 binding mass transfer model.
In assay [13] the target is CD4 antigen on human PBMCs (human) (UniProt P01730). The experiment in a line: flow cytometry on human PBMCs, after 2 mM biotin and one washing step.
The target is the same in assay [14]. Briefly: flow cytometry, human PBMCs, biotinylated Fab, SA-APC, before washing; gate at APC about 5e1; the same gate in control C prints 0,06%-#.
For assay [15] the target is unchanged. The experiment in a line: flow cytometry, human PBMCs, biotinylated Fab 1 µg/mL, SA-APC, after five washing steps; enables reversible labeling: yes.
Assay [16] has the same target. The experiment in a line: flow cytometry, human PBMCs, biotinylated Fab 1 µg/mL, SA-APC, after five washing steps; median of control (background) 0.3; enables reversible labeling: yes.
Assay [17] shares this target. Briefly: flow cytometry, human PBMCs, biotinylated Fab 1 µg/mL, SA-APC, before washing; median of control (background) 0.3.
The target in assay [18] is CD14 antigen on human PBMCs (human) (UniProt P08571). The experiment in a line: flow cytometry, human PBMCs, biotinylated Fab 1 µg/mL, SA-APC, after five washing steps; median of control (background) 0.25; enables reversible labeling: yes.
Sequence of CD14 antigen on human PBMCs (human) (P08571 20-345): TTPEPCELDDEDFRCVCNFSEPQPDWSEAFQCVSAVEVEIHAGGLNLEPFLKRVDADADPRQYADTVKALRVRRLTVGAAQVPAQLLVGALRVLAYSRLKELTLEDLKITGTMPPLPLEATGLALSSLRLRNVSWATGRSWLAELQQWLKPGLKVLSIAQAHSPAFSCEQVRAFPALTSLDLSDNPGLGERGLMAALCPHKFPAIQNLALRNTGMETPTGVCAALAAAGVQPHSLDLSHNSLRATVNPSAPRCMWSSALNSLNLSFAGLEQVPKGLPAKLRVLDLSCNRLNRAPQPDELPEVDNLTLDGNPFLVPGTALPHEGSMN
Assay [19] deals with recombinant CD14 antigen (not stated (the Fab labels human PBMCs)) (UniProt P08571). Briefly: SPR (Biacore), recombinant antigen (extracellular domain) immobilized by amine coupling, Fab as analyte, 1:1 binding mass transfer model.
Sequence of recombinant CD14 antigen (not stated (the Fab labels human PBMCs)) (P08571 20-352 limits assumed): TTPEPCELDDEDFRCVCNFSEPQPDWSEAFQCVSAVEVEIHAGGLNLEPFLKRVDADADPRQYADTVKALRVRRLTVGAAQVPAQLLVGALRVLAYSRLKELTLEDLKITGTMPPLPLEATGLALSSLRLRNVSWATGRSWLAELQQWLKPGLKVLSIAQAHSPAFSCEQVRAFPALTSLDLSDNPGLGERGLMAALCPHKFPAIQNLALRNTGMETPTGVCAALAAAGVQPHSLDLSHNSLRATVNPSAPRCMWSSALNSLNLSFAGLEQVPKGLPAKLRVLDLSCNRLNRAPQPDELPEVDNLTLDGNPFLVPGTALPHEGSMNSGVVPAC
The target of assay [20] is CD14 antigen on human PBMCs (human) (UniProt P08571). The experiment in a line: flow cytometry, human PBMCs, biotinylated Fab 1 µg/mL, SA-APC, after five washing steps; enables reversible labeling: yes.
The target is the same in assay [21]. The experiment in a line: flow cytometry, human PBMCs, biotinylated Fab 1 µg/mL, SA-APC, before washing; median of control (background) 0.25.

A word on the Kd: it is the free concentration of one partner at which half of the binding sites on the other are occupied at equilibrium, for simple one-to-one binding. The term koff denotes the first-order rate constant of dissociation. What is called kon is the second-order rate constant of association.

Sequence of recombinant CD27 antigen (not stated (the Fab labels human PBMCs)) (P26842 20-191): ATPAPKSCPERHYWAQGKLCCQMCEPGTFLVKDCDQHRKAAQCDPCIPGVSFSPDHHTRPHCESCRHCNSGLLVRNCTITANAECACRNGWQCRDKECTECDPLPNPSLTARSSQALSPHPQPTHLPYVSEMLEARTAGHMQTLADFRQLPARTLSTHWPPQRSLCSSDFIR
Sequence of recombinant CD62L antigen (not stated (the Fab labels human PBMCs)) (P14151 39-332): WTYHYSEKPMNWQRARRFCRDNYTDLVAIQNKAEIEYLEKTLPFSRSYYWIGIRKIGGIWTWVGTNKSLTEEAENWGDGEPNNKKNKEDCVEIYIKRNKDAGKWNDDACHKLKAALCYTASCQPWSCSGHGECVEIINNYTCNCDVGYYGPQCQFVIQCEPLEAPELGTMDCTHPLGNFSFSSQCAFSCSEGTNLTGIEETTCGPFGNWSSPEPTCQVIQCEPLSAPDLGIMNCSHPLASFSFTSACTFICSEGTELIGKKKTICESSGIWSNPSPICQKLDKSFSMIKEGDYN
Sequence of CD27 antigen on human PBMCs (human) (P26842 20-260): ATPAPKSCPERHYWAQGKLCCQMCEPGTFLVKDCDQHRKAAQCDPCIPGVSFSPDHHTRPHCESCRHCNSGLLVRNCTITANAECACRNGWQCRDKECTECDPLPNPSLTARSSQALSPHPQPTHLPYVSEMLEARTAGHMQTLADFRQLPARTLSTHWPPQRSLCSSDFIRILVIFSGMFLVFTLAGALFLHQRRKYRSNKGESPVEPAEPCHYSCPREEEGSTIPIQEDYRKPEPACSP

Turning to 145/15 pFab, in assay [1], the Kd stood at 0.11 µM, the koff is 0.068 s⁻¹ and the on-rate (kon) is 640000 M⁻¹ s⁻¹. The substance also gave a % median value of the detected label after Fab removal (before = 100%) in assay [2] of 2.3%. This substance also had a median value after Fab removal (ii) in [3] of 0.82. This substance also had a median value (i) in assay [4] of 35.
Take M-T271 pFab: in assay [5], the percent of cells in gate P1\P2\P3, column L was determined as 38.2%. In [6], the equilibrium dissociation constant (Kd) was 0.00096 µM, the koff worked out at 0.00026 s⁻¹ and the kon is 270000 M⁻¹ s⁻¹. The substance also gave a percent of cells in gate P1\P2\P3, column LR in assay [7] of 40.2%. In assay [8], this substance gave a % median value of the detected label after Fab removal (before = 100%) of 64%. Further, the median value after Fab removal (ii) in [9] was 6.3. The median value (i) in [10] amounted to 9.9.
In turn, M-T466 pFab yielded a median value of the PE signal, labeled in [11] of 16.4. Further, in assay [12], the Kd came to 0.016 µM, the koff is 0.016 s⁻¹ and the kon came to 1e+06 M⁻¹ s⁻¹. The substance also showed a median value of the PE signal after disruption with free biotin and washing in assay [13] of 0.2. Moreover, in assay [14], the percent of cells in gate P5, column L was 26.9%. In assay [15], this substance registered a % median value of the detected label after Fab removal (before = 100%) of 0.8%. In assay [16], this substance showed a median value after Fab removal (ii) of 0.37. Also, the median value (i) in assay [17] came out at 49.
TUK4 pFab: the median value after Fab removal (ii) in [18] came to 1. In addition, in assay [19], the Kd turned out to be 0.33 µM, the koff is 0.24 s⁻¹ and the kon came to 730000 M⁻¹ s⁻¹. In [20], this substance came in with a % median value of the detected label after Fab removal (before = 100%) of 0.7%. This substance showed a median value (i) in assay [21] of 152.
